IntAct's records for PubMed 31515488

B1: Protein FAM9B (Homo sapiens), Q8IZU0 (parent)
chain: MAAWGKKHAGKDPVRDECEERNRFTETREEDVTDEHGEREPFAETDEHTGANTKKPEDTAEDLTAKRKRMKMDKTCSKTKNKSKHALRKKQLKRQKRDYIHSLKLLNVLEEYITDEQKEEEEEEGEEEELIRIFQEQQKKWQQYRSVRRERLKEMKLLRDQFVKALEDFEDLCDRVFSDEDSELDN
partner: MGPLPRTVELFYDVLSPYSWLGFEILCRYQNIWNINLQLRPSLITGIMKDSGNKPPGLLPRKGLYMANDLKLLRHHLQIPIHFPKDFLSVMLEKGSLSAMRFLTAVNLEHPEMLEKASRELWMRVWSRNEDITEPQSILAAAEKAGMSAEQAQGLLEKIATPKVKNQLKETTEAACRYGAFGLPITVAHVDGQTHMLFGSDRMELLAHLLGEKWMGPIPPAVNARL
B2: Sodium channel modifier 1 (Homo sapiens), Q9BWG6 (parent)
chain: MSFKREGDDWSQLNVLKKRRVGDLLASYIPEDEALMLRDGRFACAICPHRPVLDTLAMLTAHRAGKKHLSSLQLFYGKKQPGKERKQNPKHQNELRREETKAEAPLLTQTRLITQSALHRAPHYNSCCRRKYRPEAPGPSVSLSPMPPSEVKLQSGKISREPEPAAGPQAEESATVSAPAPMSPTRRRALDHYLTLRSSGWIPDGRGRWVKDENVEFDSDEEEPPDLPLD
partner: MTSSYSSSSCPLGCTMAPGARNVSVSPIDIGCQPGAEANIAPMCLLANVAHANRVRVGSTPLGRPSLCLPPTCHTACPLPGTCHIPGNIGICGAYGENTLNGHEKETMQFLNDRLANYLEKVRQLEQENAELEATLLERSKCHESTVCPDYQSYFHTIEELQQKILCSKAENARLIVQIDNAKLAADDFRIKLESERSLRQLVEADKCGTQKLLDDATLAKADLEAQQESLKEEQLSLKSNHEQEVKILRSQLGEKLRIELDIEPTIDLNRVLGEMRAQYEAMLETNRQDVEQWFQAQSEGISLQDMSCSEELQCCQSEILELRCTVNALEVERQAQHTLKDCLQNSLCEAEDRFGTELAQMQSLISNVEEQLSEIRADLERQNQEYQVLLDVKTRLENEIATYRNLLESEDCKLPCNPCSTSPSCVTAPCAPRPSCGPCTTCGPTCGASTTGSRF
B3: Ribosomal RNA-processing protein 7 homolog A (Homo sapiens), Q9Y3A4 (parent)
chain: MVARRRKCAARDPEDRIPSPLGYAAIPIKFSEKQQASHYLYVRAHGVRQGTKSTWPQKRTLFVLNVPPYCTEESLSRLLSTCGLVQSVELQEKPDLAESPKESRSKFFHPKPVPGFQVAYVVFQKPSGVSAALALKGPLLVSTESHPVKSGIHKWISDYADSVPDPEALRVEVDTFMEAYDQKIAEEEAKAKEEEGVPDEEGWVKVTRRGRRPVLPRTEAASLRVLERERRKRSRKELLNFYAWQHRESKMEHLAQLRKKFEEDKQRIELLRAQRKFRPY
B4: Zinc finger protein RFP (Homo sapiens), P14373 (parent)
chain: MASGSVAECLQQETTCPVCLQYFAEPMMLDCGHNICCACLARCWGTAETNVSCPQCRETFPQRHMRPNRHLANVTQLVKQLRTERPSGPGGEMGVCEKHREPLKLYCEEDQMPICVVCDRSREHRGHSVLPLEEAVEGFKEQIQNQLDHLKRVKDLKKRRRAQGEQARAELLSLTQMEREKIVWEFEQLYHSLKEHEYRLLARLEELDLAIYNSINGAITQFSCNISHLSSLIAQLEEKQQQPTRELLQDIGDTLSRAERIRIPEPWITPPDLQEKIHIFAQKCLFLTESLKQFTEKMQSDMEKIQELREAQLYSVDVTLDPDTAYPSLILSDNLRQVRYSYLQQDLPDNPERFNLFPCVLGSPCFIAGRHYWEVEVGDKAKWTIGVCEDSVCRKGGVTSAPQNGFWAVSLWYGKEYWALTSPMTALPLRTPLQRVGIFLDYDAGEVSFYNVTERCHTFTFSHATFCGPVRPYFSLSYSGGKSAAPLIICPMSGIDGFSGHVGNHGHSMETSP
partner: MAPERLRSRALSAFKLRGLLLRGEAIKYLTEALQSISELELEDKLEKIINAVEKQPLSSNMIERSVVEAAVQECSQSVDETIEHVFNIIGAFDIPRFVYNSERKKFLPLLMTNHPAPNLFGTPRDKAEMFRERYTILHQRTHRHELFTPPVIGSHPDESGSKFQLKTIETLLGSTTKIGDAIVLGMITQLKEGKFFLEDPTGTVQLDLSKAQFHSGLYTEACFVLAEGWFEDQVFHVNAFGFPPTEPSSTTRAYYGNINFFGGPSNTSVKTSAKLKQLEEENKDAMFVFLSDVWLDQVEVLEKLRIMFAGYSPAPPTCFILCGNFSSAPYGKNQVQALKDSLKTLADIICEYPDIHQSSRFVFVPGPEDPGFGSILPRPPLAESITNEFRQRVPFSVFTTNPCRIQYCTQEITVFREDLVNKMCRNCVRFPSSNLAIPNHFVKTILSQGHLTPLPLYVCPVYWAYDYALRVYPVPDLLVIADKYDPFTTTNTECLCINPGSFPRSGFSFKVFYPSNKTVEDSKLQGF
B5: PDZ and LIM domain protein 5 (Homo sapiens), Q96HC4 (parent)
chain: MSNYSVSLVGPAPWGFRLQGGKDFNMPLTISSLKDGGKAAQANVRIGDVVLSIDGINAQGMTHLEAQNKIKGCTGSLNMTLQRASAAPKPEPVPVQKGEPKEVVKPVPITSPAVSKVTSTNNMAYNKAPRPFGSVSSPKVTSIPSPSSAFTPAHATTSSHASPSPVAAVTPPLFAASGLHANANLSADQSPSALSAGKTAVNVPRQPTVTSVCSETSQELAEGQRRGSQGDSKQQNGPPRKHIVERYTEFYHVPTHSDASKKRLIEDTEDWRPRTGTTQSRSFRILAQITGTEHLKESEADNTKKANNSQEPSPQLASSVASTRSMPESLDSPTSGRPGVTSLTAAAAFKPVGSTGVIKSPSWQRPNQGVPSTGRISNSATYSGSVAPANSALGQTQPSDQDTLVQRAEHIPAGKRTPMCAHCNQVIRGPFLVALGKSWHPEEFNCAHCKNTMAYIGFVEEKGALYCELCYEKFFAPECGRCQRKILGEVISALKQTWHVSCFVCVACGKPIRNNVFHLEDGEPYCETDYYALFGTICHGCEFPIEAGDMFLEALGYTWHDTCFVCSVCCESLEGQTFFSKKDKPLCKKHAHSVNF
B6: Syntenin-2 (Homo sapiens), Q9H190 (parent)
chain: MSSLYPSLEDLKVDQAIQAQVRASPKMPALPVQATAISPPPVLYPNLAELENYMGLSLSSQEVQESLLQIPEGDSTAVSGPGPGQMVAPVTGYSLGVRRAEIKPGVREIHLCKDERGKTGLRLRKVDQGLFVQLVQANTPASLVGLRFGDQLLQIDGRDCAGWSSHKAHQVVKKASGDKIVVVVRDRPFQRTVTMHKDSMGHVGFVIKKGKIVSLVKGSSAARNGLLTNHYVCEVDGQNVIGLKDKKIMEILATAGNVVTLTIIPSVIYEHMVKKLPPVLLHHTMDHSIPDA
partner: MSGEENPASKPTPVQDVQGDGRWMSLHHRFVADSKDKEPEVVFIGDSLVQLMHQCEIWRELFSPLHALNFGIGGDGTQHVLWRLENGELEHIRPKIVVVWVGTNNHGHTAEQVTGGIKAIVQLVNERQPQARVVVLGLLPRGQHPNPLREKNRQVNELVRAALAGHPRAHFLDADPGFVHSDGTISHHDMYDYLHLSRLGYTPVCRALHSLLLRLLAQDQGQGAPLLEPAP

Variants of: B1
Conditions: with gstk1_human GSTK1, Q9Y2Q3

| Variant | effect of a mutation on the interaction |
| --- | --- |
| R23H | with no effect |

Variants of: B2
Conditions: with krt38_human KRT38, O76015

| Variant | effect of a mutation on the interaction |
| --- | --- |
| A174V | with no effect |

Variants of: B3
Conditions: with tfp11_human TFIP11, Q9UBB9
Sequence of tfp11_human TFIP11, Q9UBB9 (Q9UBB9 whole entry): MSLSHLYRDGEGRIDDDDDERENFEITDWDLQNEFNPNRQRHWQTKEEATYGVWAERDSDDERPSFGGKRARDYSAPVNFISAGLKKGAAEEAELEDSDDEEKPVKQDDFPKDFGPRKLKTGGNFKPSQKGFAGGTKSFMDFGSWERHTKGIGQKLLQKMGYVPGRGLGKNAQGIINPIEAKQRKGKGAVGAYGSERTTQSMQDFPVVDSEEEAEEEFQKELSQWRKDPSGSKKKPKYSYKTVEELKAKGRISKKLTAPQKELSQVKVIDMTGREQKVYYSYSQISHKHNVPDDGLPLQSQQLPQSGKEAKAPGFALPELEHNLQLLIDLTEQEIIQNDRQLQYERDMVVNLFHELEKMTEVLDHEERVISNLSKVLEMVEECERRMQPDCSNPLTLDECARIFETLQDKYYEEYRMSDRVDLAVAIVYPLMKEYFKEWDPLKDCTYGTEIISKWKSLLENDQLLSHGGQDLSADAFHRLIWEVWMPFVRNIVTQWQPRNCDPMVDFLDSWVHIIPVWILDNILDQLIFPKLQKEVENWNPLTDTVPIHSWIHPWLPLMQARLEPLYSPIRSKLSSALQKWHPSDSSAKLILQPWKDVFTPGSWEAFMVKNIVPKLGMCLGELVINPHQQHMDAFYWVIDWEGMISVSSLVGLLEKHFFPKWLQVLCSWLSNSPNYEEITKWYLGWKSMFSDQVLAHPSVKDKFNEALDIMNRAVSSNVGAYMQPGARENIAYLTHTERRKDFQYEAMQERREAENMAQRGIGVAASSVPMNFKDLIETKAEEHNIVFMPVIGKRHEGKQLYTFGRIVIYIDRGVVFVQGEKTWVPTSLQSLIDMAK

| Variant | effect of a mutation on the interaction |
| --- | --- |
| L75M | disrupting interaction strength |
| V85I | with no effect |

Variants of: B4
Conditions: with dpoe2_human POLE2, P56282

| Variant | effect of a mutation on the interaction |
| --- | --- |
| N355S | with no effect |

Variants of: B5
Conditions: with cc136_human CCDC136, Q96JN2
Sequence of cc136_human CCDC136, Q96JN2 (Q96JN2 whole entry): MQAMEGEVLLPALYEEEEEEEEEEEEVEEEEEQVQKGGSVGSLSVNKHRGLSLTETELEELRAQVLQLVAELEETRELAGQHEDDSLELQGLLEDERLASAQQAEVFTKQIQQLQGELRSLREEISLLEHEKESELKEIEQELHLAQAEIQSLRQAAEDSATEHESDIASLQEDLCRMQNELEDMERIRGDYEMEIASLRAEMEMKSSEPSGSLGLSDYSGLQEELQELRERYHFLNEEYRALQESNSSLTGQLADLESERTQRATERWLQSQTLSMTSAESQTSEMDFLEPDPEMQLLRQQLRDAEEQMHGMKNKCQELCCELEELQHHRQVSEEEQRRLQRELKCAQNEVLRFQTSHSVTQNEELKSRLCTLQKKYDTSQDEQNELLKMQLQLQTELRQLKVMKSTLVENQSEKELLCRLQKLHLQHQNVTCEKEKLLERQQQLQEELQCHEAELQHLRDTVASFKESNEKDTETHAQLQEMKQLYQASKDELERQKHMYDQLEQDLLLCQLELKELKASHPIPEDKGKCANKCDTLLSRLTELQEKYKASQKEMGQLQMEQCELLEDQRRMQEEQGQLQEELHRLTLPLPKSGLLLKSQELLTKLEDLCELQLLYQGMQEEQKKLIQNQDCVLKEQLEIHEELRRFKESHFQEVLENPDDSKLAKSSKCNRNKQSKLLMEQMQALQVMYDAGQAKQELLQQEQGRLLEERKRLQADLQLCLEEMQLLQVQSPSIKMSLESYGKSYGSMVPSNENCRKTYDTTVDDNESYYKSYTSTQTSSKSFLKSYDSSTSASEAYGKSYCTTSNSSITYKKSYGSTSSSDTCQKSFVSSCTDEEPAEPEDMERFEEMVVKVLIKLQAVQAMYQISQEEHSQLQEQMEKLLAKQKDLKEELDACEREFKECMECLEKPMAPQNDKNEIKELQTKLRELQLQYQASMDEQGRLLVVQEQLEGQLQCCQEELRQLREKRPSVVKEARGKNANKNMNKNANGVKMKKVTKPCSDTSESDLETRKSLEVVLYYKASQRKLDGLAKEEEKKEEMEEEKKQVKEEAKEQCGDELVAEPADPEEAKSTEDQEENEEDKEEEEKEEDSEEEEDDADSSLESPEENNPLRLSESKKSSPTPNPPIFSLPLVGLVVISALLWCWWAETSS

| Variant | effect of a mutation on the interaction |
| --- | --- |
| P388S | with no effect |
| S136F | with no effect |

Variants of: B5
Conditions: with coil_human COIL

| Variant | effect of a mutation on the interaction |
| --- | --- |
| P388S | with no effect |

Variants of: B6
Conditions: with pa1b3_human PAFAH1B3, Q15102

| Variant | effect of a mutation on the interaction |
| --- | --- |
| V182M | with no effect |
| G225R | with no effect |
| G242R | with no effect |
